B1: His-tag p16 (P42771) (other, human)
chain: MEPAAGSSMEPSADWLATAAARGRVEEVRALLEAGALPNAPNSYGRRPIQVMMMGSARVAELLLLHGAEPNCADPATLTRPVHDAAREGFLDTLVVLHRAGARLDVRDAWGRLPVDLAEELGHRDVARYLRAAAGGTRGSNHARIDAAEGPSDIPDHHHHHH
notes: Capture protein, expressed on the chip by cell-free synthesis with a His-tag
B2: His-tag CDK4 (P11802) (enzyme, human)
chain: MATSRYEPVAEIGVGAYGTVYKARDPHSGHFVALKSVRVPNGGGGGGGLPISTVREVALLRRLEAFEHPNVVRLMDVCATSRTDREIKVTLVFEHVDQDLRTYLDKAPPPGLPAETIKDLMRQFLRGLDFLHANCIVHRDLKPENILVTSGGTVKLADFGLARIYSYQMALTPVVVTLWYRAPEVLLQSTYATPVDMWSVGCIFAEMFRRKPLFCGNSEADQLGKIFDLIGLPPEDDWPRDVSLPRGAFPPRGPRPVQSVVPEMEESGAQLLLEMLTFNPHKRISAFRALQHSYLHKDEGNPEHHHHHH
notes: as for B1
B3: Jun (P05412) without His-tag (other, human, UniProt P05412 1-331, looked up)
chain: MTAKMETTFYDDALNASFLPSESGPYGYSNPKILKQSMTLNLADPVGSLKPHLRAKNSDLLTSPDVGLLKLASPELERLIIQSSNGHITTTPTPTQFLCPKNVTDEQEGFAEGFVRALAELHSQNTLPSVTSAAQPVNGAGMVAPAVASVAGGSGSGGFSASLHSEPPVYANLSNFNPGALSSGGGAPSYGAAGLAFPAQPQQQQQPPHHLPQQMPVQHPRLQALKEEPQTVPEMPGETPPLSPIDMESQERIKAERKRMRNRIAASKCRKRKLERIARLEEKVKTLKAQNSELASTANMLREQVAQLKQKVMNHVNSGCQLMLTQQLQTF
notes: also called Jun (noHis)
B4: His-tag Jun (P05412) (other, human)
chain: MTAKMETTFYDDALNASFLPSESGPYGYSNPKILKQSMTLNLADPVGSLKPHLRAKNSDLLTSPDVGLLKLASPELERLIIQSSNGHITTTPTPTQFLCPKNVTDEQEGFAEGFVRALAELHSQNTLPSVTSAAQPVNGAGMVAPAVASVAGGSGSGGFSASLHSEPPVYANLSNFNPGALSSGGGAPSYGAAGLAFPAQPQQQQQPPHHLPQQMPVQHPRLQALKEEPQTVPEMPGETPPLSPIDMESQERIKAERKRMRNRIAASKCRKRKLERIARLEEKVKTLKAQNSELASTANMLREQVAQLKQKVMNHVNSGCQLMLTQQLQTFHHHHHH
notes: as for B1
B5: p16 (P42771) without His-tag (other, human, UniProt P42771 1-156, looked up)
chain: MEPAAGSSMEPSADWLATAAARGRVEEVRALLEAGALPNAPNSYGRRPIQVMMMGSARVAELLLLHGAEPNCADPATLTRPVHDAAREGFLDTLVVLHRAGARLDVRDAWGRLPVDLAEELGHRDVARYLRAAAGGTRGSNHARIDAAEGPSDIPD
notes: also called p16 (noHis)
B6: CDK4 (P11802) without His-tag (enzyme, human, UniProt P11802 1-303, looked up)
chain: MATSRYEPVAEIGVGAYGTVYKARDPHSGHFVALKSVRVPNGGGGGGGLPISTVREVALLRRLEAFEHPNVVRLMDVCATSRTDREIKVTLVFEHVDQDLRTYLDKAPPPGLPAETIKDLMRQFLRGLDFLHANCIVHRDLKPENILVTSGGTVKLADFGLARIYSYQMALTPVVVTLWYRAPEVLLQSTYATPVDMWSVGCIFAEMFRRKPLFCGNSEADQLGKIFDLIGLPPEDDWPRDVSLPRGAFPPRGPRPVQSVVPEMEESGAQLLLEMLTFNPHKRISAFRALQHSYLHKDEGNPE
notes: also called CDK4 (noHis)

The target in experiment [1] is T1, Fos (P01100) without His-tag (human, UniProt P01100 1-380).
T1 construct: also called Fos (noHis)
Put plainly: label-free nIR fluorescence (1045 nm) of SWNT/chitosan Ni-NTA array spots; His-tag capture protein expressed on the spot, then analyte protein without His-tag added; pair label = capture-analyte.

Experiment [2] has as its target B3. Nature of the experiment: nIR fluorescence spectra (1000-1100 nm) of one SWNT/chitosan Ni-NTA array spot before expression, after the His-tag capture protein and after the analyte protein without His-tag; pair label = capture-analyte.
Experiment [3] deals with T1, Fos (P01100) without His-tag. The experiment is described as above.
Experiment [4] deals with B3. Nature of the experiment: label-free nIR fluorescence (1045 nm) of SWNT/chitosan Ni-NTA array spots; His-tag capture protein expressed on the spot, then analyte protein without His-tag added; pair label = capture-analyte.
Experiment [5] addresses T2, His-tag Fos (P01100) (human, UniProt P01100 1-380).
T2 construct: Capture protein, expressed on the chip by cell-free synthesis with a His-tag
Put plainly: change of the Ni2+-SWNT distance on adding the analyte, calculated by the Förster equation from nIR fluorescence of the SWNT/chitosan Ni-NTA array.

Experiment [6] deals with T1, Fos (P01100) without His-tag. Put plainly: label-free nIR fluorescence (1045 nm) of SWNT/chitosan Ni-NTA array spots; His-tag capture protein expressed on the spot, then cell-free expressed analyte protein without His-tag added; pair label = capture-analyte.
Experiment [7] concerns the target T2, His-tag Fos (P01100). Nature of the experiment: nIR fluorescence spectra (1000-1100 nm) of one SWNT/chitosan Ni-NTA array spot before expression, after the His-tag capture protein and after the analyte protein without His-tag; pair label = capture-analyte.
The target in the experiment “His-tag CDK4 (P11802)” is B2. Put plainly: change of the Ni2+-SWNT distance on adding the analyte, calculated by the Förster equation from nIR fluorescence of the SWNT/chitosan Ni-NTA array.
Experiment [8] concerns the target B4. Put plainly: nIR fluorescence spectra (1000-1100 nm) of one SWNT/chitosan Ni-NTA array spot before expression, after the His-tag capture protein and after the analyte protein without His-tag; pair label = capture-analyte.
Experiment [9] addresses T2, His-tag Fos (P01100). Described as above. The source holds these as a separate data set.
Experiment [10] concerns the target B4. Described as above. This is another data set of the same source.
The experiment “His-tag p16 (P42771)” has as its target B1. Nature of the experiment: change of the Ni2+-SWNT distance on adding the analyte, calculated by the Förster equation from nIR fluorescence of the SWNT/chitosan Ni-NTA array.

Like-named read-outs stand apart in the source and are kept apart here.

The text below walks through data of patent publication US10215752 (MIT, dated 2019).

T2 sequence (P01100 other isoform, or with tags, fused parts or gaps limits assumed): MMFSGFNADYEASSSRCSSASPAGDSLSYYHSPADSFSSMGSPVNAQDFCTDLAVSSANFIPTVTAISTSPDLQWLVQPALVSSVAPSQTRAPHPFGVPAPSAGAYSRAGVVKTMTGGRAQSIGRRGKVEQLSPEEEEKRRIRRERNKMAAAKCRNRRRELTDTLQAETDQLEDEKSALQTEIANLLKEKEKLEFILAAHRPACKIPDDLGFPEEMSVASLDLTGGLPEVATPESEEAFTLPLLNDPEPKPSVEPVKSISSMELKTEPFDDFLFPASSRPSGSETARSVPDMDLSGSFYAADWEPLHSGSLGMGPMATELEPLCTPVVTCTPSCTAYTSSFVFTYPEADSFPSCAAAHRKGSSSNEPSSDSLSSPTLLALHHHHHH
T1 sequence (P01100 whole entry, one chain of several): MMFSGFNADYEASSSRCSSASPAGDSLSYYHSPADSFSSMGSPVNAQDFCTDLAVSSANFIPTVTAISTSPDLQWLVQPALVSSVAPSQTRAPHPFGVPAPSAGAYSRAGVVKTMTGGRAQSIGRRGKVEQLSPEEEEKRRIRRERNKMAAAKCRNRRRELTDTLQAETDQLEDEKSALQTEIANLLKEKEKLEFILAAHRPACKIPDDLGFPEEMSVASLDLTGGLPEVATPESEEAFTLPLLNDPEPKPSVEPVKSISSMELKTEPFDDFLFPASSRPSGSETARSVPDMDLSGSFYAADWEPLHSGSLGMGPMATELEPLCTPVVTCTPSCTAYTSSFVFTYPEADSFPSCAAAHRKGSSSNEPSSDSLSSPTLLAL

For B1, the binding result in [1] and in experiment [2] was “no binding” in each case.
For B2, the binding result in [3] and in experiment [4] was “no binding” throughout.
With B3, the Δd2 with His-tag Fos (P01100) [5] was 0.0236 nm.
As to B4, the binding result in experiment [6] was “binds”.
For B5, the binding result with His-tag Fos (P01100) [7] and in the experiment with His-tag Jun (P05412) [8] was “no binding” in each case. The Δd2 with His-tag CDK4 (P11802) was 0.0634 nm.
On to B6, for which the binding result with His-tag Fos (P01100) [9] and with His-tag Jun (P05412) [10] was “no binding” each time. In addition, the Δd2 with His-tag p16 (P42771) was 0.0517 nm.
